Measured values reported in the supplement of paper PMC7125110.
± gives the standard error. For some of these results: Fewer inactive variants are shown than the library holds.

B1: glmS ribozyme (parent)
chain: AUAAAAGCGCCAGAACUACAGAAAUGUAGUUGACGAGGAGGAGGUUUAUCGAAUUUUCGGCGGAUGCCUCCAAA

Key:
Settings in all cases: with glucosamine-6-phosphate
[1] = variants of: B1; assay: kcat; higher = faster cleavage; RNA array
In short: (§1)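 Barcoded ribozyme variants on sequenced MiSeq chips were transcribed in situ by E. coli RNA polymerase and followed at 37 °C through a hybridised Cy3 probe. Glucosamine-6-phosphate at 40 μM to 10 mM in HEPES/KCl/Mg(OAc)2 buffer was flowed in, and tiles were imaged over ~14 h. Signals were normalised to baseline and to non-cleaving reference variants, and per-tile medians were fit to one- or two-exponential decays to give kobs. Weighted Michaelis–Menten fits across concentrations gave kcat and KM.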

[2] = variants of: B1; assay: self-cleavage kobs at 640 uM GlcN6P; higher = faster cleavage; RNA array
In short: as §1

[3] = variants of: B1; assay: self-cleavage kobs at 2500 uM GlcN6P; higher = faster cleavage; RNA array
In short: as §1

[4] = variants of: B1; assay: self-cleavage kobs at 10000 uM GlcN6P; higher = faster cleavage; RNA array
In short: as §1

[5] = variants of: B1; assay: self-cleavage kobs at 40 uM GlcN6P; higher = faster cleavage; RNA array
In short: as §1

[6] = variants of: B1; assay: KM; higher = weaker cofactor use; RNA array
In short: as §1

[7] = variants of: B1; assay: self-cleavage kobs at 160 uM GlcN6P; higher = faster cleavage; RNA array
In short: as §1

Variant | kcat [1] | self-cleavage kobs at 640 uM GlcN6P [2] | self-cleavage kobs at 2500 uM GlcN6P [3] | self-cleavage kobs at 10000 uM GlcN6P [4] | self-cleavage kobs at 40 uM GlcN6P [5] | KM [6] | self-cleavage kobs at 160 uM GlcN6P [7]
A14G C67G C71U | 5.11e-05 ± 1.2e-05 s⁻¹ | 9.52e-05 ± 3.5e-05 s⁻¹ | 5.17e-05 ± 1.4e-05 s⁻¹ | 4.43e-05 ± 1.3e-05 s⁻¹ |  |  | 
G41C U55C | 0.000176 ± 4.4e-05 s⁻¹ |  | 0.00012 ± 3.6e-05 s⁻¹ | 0.000129 ± 3.9e-05 s⁻¹ |  |  | 
A14U G43A | 4.42e-05 ± 1.9e-05 s⁻¹ |  |  |  |  |  | 
U55A U57A | 0.000112 ± 3.7e-05 s⁻¹ | 7.83e-05 ± 1.8e-05 s⁻¹ | 8.45e-05 ± 2.7e-05 s⁻¹ |  |  |  | 
G7U C16U C50G U69G | 0.000615 ± 0.00015 s⁻¹ | 0.0012 ± 0.00039 s⁻¹ | 0.000564 ± 0.0002 s⁻¹ | 0.00054 ± 0.00017 s⁻¹ | 0.00029 ± 0.00013 s⁻¹ |  | 
A42G U56A | 0.0334 ± 0.011 s⁻¹ | 0.00451 ± 0.001 s⁻¹ | 0.0106 ± 0.0033 s⁻¹ | 0.024 ± 0.0052 s⁻¹ | 0.000401 ± 8.1e-05 s⁻¹ | 4460 ± 1800 µM | 0.000893 ± 0.00024 s⁻¹
U49C C67U | 1e-05 ± 1e-06 s⁻¹ |  |  |  |  | 267 ± 130 µM | 
G13U C67A | 0.000419 ± 9e-05 s⁻¹ | 9.71e-05 ± 9.5e-06 s⁻¹ | 0.000225 ± 2.3e-05 s⁻¹ | 0.000504 ± 0.00015 s⁻¹ |  | 2040 ± 670 µM | 3.99e-05 ± 9e-06 s⁻¹
A6U C67G | 1.15e-05 ± 1.2e-06 s⁻¹ |  |  |  |  |  | 
G40A G43C U47C C50G U65C | 2.52e-05 ± 1.1e-05 s⁻¹ |  |  |  |  |  | 
C16G G37A | 0.000832 ± 0.00041 s⁻¹ | 3.76e-05 ± 1.2e-05 s⁻¹ | 0.000292 ± 6.6e-05 s⁻¹ | 0.000396 ± 4.9e-05 s⁻¹ |  |  | 
C61U C71U | 2.55e-05 ± 4.8e-07 s⁻¹ | < 1e-05 s⁻¹ |  |  | < 1e-05 s⁻¹ | 2880 ± 200 µM | < 1e-05 s⁻¹
U30C G59A | < 1e-05 s⁻¹ |  |  |  |  |  | 
C58A G66U | 5.19e-05 ± 5.8e-06 s⁻¹ |  |  | 4.3e-05 ± 5.6e-06 s⁻¹ |  |  | 
G32U U46G | 0.000316 ± 0.00012 s⁻¹ | 4.52e-05 ± 1.5e-05 s⁻¹ | 6.3e-05 ± 1.1e-05 s⁻¹ | 0.000169 ± 2e-05 s⁻¹ |  |  | 
U57A C70A | 1.98e-05 ± 3.5e-06 s⁻¹ |  |  |  |  |  | 
A36U C61A | < 1e-05 s⁻¹ |  |  | < 1e-05 s⁻¹ | < 1e-05 s⁻¹ |  | 
C68U C71A | 1.12e-05 ± 6.7e-07 s⁻¹ |  |  |  |  |  | 
G29A A48C | 3.13e-05 ± 8.9e-06 s⁻¹ |  | 3.4e-05 ± 1.6e-05 s⁻¹ |  |  |  | 
U56G G59U | 2.54e-05 ± 5.7e-06 s⁻¹ |  | 2.9e-05 ± 1.4e-05 s⁻¹ | 2.16e-05 ± 1e-05 s⁻¹ |  |  | < 1e-05 s⁻¹
A15C G32A | 0.00227 ± 0.0006 s⁻¹ | 0.000293 ± 6.8e-05 s⁻¹ | 0.0012 ± 0.00025 s⁻¹ | 0.00157 ± 0.00034 s⁻¹ | 4.19e-05 ± 1.9e-05 s⁻¹ | 3610 ± 1400 µM | 9.83e-05 ± 3.7e-05 s⁻¹

Variant | kcat [1] | self-cleavage kobs at 640 uM GlcN6P [2] | self-cleavage kobs at 2500 uM GlcN6P [3] | self-cleavage kobs at 10000 uM GlcN6P [4] | self-cleavage kobs at 40 uM GlcN6P [5] | KM [6] | self-cleavage kobs at 160 uM GlcN6P [7]
C58U C71G | < 1e-05 s⁻¹ |  |  |  |  |  | 
U46A U56G | 0.00195 ± 0.00071 s⁻¹ | 0.000283 ± 6.8e-05 s⁻¹ | 0.000603 ± 0.00011 s⁻¹ | 0.00183 ± 0.00029 s⁻¹ |  |  | 9.87e-05 ± 1.5e-05 s⁻¹
G40C U49G | 6.75e-05 ± 1.8e-05 s⁻¹ |  | 5.43e-05 ± 1.5e-05 s⁻¹ | 5.5e-05 ± 1.3e-05 s⁻¹ | < 1e-05 s⁻¹ |  | 
C10U U31G | 2.34e-05 ± 1.5e-06 s⁻¹ |  |  |  | < 1e-05 s⁻¹ | 552 ± 200 µM | 
G13U C34U | < 1e-05 s⁻¹ |  | < 1e-05 s⁻¹ |  | < 1e-05 s⁻¹ |  | 
C61G C68U | < 1e-05 s⁻¹ |  |  |  |  |  | 
A6U A15U G63U G66A | 1.95e-05 ± 6.5e-06 s⁻¹ |  |  |  |  |  | 
A14C G35C | < 1e-05 s⁻¹ |  |  | < 1e-05 s⁻¹ | < 1e-05 s⁻¹ |  | 
A39G U56A | 0.0171 ± 0.0023 s⁻¹ | 0.0049 ± 0.00073 s⁻¹ | 0.0133 ± 0.0025 s⁻¹ | 0.0137 ± 0.0019 s⁻¹ | 0.000348 ± 6.9e-05 s⁻¹ | 1670 ± 340 µM | 0.00162 ± 0.00029 s⁻¹
A15G C67A | 0.00627 ± 0.0024 s⁻¹ | 0.00406 ± 0.0007 s⁻¹ | 0.00376 ± 0.00071 s⁻¹ | 0.00896 ± 0.0018 s⁻¹ | 0.000534 ± 0.00011 s⁻¹ |  | 0.000961 ± 0.00011 s⁻¹
A14U A64G | 0.00805 ± 0.003 s⁻¹ | 0.00143 ± 0.00016 s⁻¹ | 0.00635 ± 0.00079 s⁻¹ | 0.00568 ± 0.00075 s⁻¹ | 0.000177 ± 2.5e-05 s⁻¹ | 2740 ± 1300 µM | 0.000391 ± 4.2e-05 s⁻¹
U31A C68G | 3.4e-05 ± 9.3e-07 s⁻¹ |  | 2.78e-05 ± 1.1e-05 s⁻¹ | 3.32e-05 ± 8.1e-06 s⁻¹ |  | 408 ± 78 µM | 
C16U A42U A64G | 0.000175 ± 4.3e-05 s⁻¹ |  | 7.15e-05 ± 1.6e-05 s⁻¹ | 0.000122 ± 2.6e-05 s⁻¹ |  |  | 
G51A C70A | 2.99e-05 ± 7.1e-06 s⁻¹ |  | 3.24e-05 ± 1.5e-05 s⁻¹ |  |  |  | 
U30A U55A C71U | 0.00347 ± 0.0015 s⁻¹ | 0.00113 ± 0.00035 s⁻¹ | 0.00197 ± 0.00068 s⁻¹ | 0.00566 ± 0.0018 s⁻¹ | 0.000138 ± 3.7e-05 s⁻¹ |  | 
G41U U47C | 0.000156 ± 5.1e-05 s⁻¹ | 4.55e-05 ± 1.3e-05 s⁻¹ | 0.000205 ± 4.6e-05 s⁻¹ | 0.000128 ± 2.3e-05 s⁻¹ |  |  | 
C67G C71A | < 1e-05 s⁻¹ |  |  |  |  |  | 
A15C G29A | 0.0015 ± 0.00014 s⁻¹ | 0.000137 ± 2.3e-05 s⁻¹ | 0.000429 ± 9.7e-05 s⁻¹ | 0.000924 ± 0.00012 s⁻¹ |  | 6270 ± 870 µM | 
C16U U54G | 0.0201 ± 0.0063 s⁻¹ | 0.00575 ± 0.00092 s⁻¹ | 0.0115 ± 0.0019 s⁻¹ | 0.0185 ± 0.0042 s⁻¹ | 0.000682 ± 0.00011 s⁻¹ | 1720 ± 730 µM | 0.00138 ± 0.00023 s⁻¹
U65A C71U | 0.00196 ± 0.00076 s⁻¹ | 0.00117 ± 0.00012 s⁻¹ | 0.0011 ± 0.0002 s⁻¹ | 0.00301 ± 0.00053 s⁻¹ | 0.000139 ± 2.2e-05 s⁻¹ |  | 0.000277 ± 4.1e-05 s⁻¹
